Target: T1, 6xHis–Rab35^WT full-length (human, UniProt Q15286 1-201)
T1 construct: Rab35 GTPase, full-length, wild type; Exchanged with 1 mM GDP or 200 μM GTPγS before the pull-down; The species is not repeated for the His construct; also called 6xHis-tagged Rab35^WT; source: E. coli BL21 pLysS, purified (Ni-NTA Magnetic Agarose Beads)
Test: pull-down; GST–PODXL tail or GST on glutathione Sepharose 4B beads incubated with 6xHis-Rab proteins exchanged with 1 mM GDP or 200 μM GTPγS; 25 mM Tris pH 7.5, 50 mM NaCl, 10 mM MgCl2, 0.1% Triton X-100, 0.2% BSA; western blot with anti-6xHis
Conditions: both partners purified

T1 sequence (Q15286 whole entry): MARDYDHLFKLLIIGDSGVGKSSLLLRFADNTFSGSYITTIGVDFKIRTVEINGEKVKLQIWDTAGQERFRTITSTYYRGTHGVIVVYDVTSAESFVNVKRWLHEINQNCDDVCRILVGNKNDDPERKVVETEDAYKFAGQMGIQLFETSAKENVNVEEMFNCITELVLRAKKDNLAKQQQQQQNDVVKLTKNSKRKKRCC

binding result: binds
B1: GST–PODXL WT (aa 476–551) (domain or fragment, rabbit, UniProt Q28645 476-551, looked up)
chain: CHQRLSHRKDQQRLTEELQTVENGYHDNPTLEVMETSAEMQEKKVVNLNGELGDSWIVPLDNLTKDDLDEEEDTHL
notes: The species is not repeated for the GST construct; source: E. coli BL21 pLysS, purified (glutathione Sepharose 4B)

Source: publication PMC4822036, “Rab35 GTPase couples cell division with initiation of epithelial apico-basal polarity and lumen opening” (Nature Communications, 2016)
